This note sets out measurements from US20090099093A1 (Stanford University, published 2009).

No end group written: not given here.

This test has as its target Mushroom tyrosinase (mushroom, UniProt C7FF04 1-392). The test can be described thus: cell-based or functional assay.

Sequence of Mushroom tyrosinase (C7FF04 1-392): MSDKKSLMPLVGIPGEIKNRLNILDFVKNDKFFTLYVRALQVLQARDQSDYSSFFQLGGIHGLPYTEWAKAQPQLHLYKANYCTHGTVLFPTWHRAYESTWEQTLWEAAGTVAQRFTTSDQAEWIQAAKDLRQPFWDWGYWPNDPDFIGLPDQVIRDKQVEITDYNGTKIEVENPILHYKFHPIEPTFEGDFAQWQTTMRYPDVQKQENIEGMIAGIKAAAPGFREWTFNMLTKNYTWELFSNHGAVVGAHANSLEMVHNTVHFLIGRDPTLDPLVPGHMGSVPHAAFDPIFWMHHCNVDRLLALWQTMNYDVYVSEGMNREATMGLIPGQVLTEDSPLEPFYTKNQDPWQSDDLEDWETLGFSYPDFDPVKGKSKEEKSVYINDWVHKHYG

As to SFLLRN [SF peptide (SFLLRN)], the “IC50 (inhibition of mushroom tyrosinase activity, dopachrome at 475 nm, L-tyrosine substrate)” value came to 8000 µM.

Pro-Leu-Gly-OH [PLG-OH]: the “IC50 (inhibition of mushroom tyrosinase activity, dopachrome at 475 nm, L-tyrosine substrate)” value came to 2730 µM.

As for RADSRADC [RA peptide (RADSRADC)], the “IC50 (inhibition of mushroom tyrosinase activity, dopachrome at 475 nm, L-tyrosine substrate)” value is 123 µM.
